Reference: PMC3070410

Target: T1, RepA hexameric replicative helicase (plasmid RSF1010, UniProt P20356 1-279)
T1 sequence: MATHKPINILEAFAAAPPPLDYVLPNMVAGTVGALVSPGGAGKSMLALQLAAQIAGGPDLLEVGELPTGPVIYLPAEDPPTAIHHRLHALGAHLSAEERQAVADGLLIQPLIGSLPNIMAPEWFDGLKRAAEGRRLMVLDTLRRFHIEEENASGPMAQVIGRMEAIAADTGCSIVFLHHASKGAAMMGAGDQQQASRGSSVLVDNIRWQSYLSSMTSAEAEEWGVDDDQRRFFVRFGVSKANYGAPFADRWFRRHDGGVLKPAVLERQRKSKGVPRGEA
Experiment: stopped-flow fluorescence anisotropy

B1: dT(pT)19-Fl-3' (21-mer) (ssDNA)
DNA: TTTTTTTTTTTTTTTTTTTT
modifications: 3' amino six-carbon linker residue
B1: binds.
